# Measured values: patent US20240092930A1 (MABWELL SHANGHAI BIOSCIENCE, published 2024)
# Numbering of substitutions follows the chain as printed.
# T1: recombinant human Trop-2-his protein (ACCESSION NO.: NP_002344.2, AA 1-274) (human, UniProt P09758 27-274)
# T1 construct: range 27-274; also called recombinant human Trop-2 protein; recombinant human Trop-2 extracellular domain; not shown: his tag
# T1 sequence (looked up): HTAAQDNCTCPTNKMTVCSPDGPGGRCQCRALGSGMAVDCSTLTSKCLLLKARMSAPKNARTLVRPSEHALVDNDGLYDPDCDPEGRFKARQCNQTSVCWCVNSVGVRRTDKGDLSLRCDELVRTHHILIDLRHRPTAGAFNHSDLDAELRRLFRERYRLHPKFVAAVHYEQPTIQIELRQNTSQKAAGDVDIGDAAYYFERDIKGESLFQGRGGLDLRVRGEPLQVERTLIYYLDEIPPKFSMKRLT
# B1: h23-12-1 (antibody, human IgG1, kappa, V domains shown)
# VH: QVQLVQSGAEVKKPGASVKVSCKASGYTFTSYWMHWVRQAPGQGLEWMGEITPSDNYTSYNQKFKGRVTITRDTSTSTAYMELSSLRSEDTAVYYCARGHGNYVSFDYWGQGTLVTVSS
# VL: DIQMTQSPSSLSASVGDRVTITCRASQDISNYLNWYQQKPGKAPKLLIYYTSRLHSGVPSRFSGSGSGTDFTLTISSLQPEDFATYFCQQGYTLPPYTFGQGTKLEIKR
# notes: also called CDR grafted antibody 23-12
# B2: h23-12-23 (antibody, human IgG1, kappa, V domains shown)
# VH: B1 VH with S54G
# VL: B1 VL with H55E
# B3: h23-12-6 (antibody, human IgG1, kappa, V domains shown)
# VH: B1 VH with H100E
# VL: B1 VL
# B4: h23-12-42 (antibody, human IgG1, kappa, V domains shown)
# VH: B1 VH with H100Q
# VL: B1 VL with G91Y
# B5: h23-12-9 (antibody, human IgG1, kappa, V domains shown)
# VH: B1 VH with S54G
# VL: B1 VL with T51A
# B6: h23-12-19 (antibody, human IgG1, kappa, V domains shown)
# VH: B1 VH with N61A
# VL: B1 VL with R53S
# B7: h23-12-32 (antibody, human IgG1, kappa, V domains shown)
# VH: B1 VH with T58G
# VL: B1 VL with H55Q
# B8: h23-12-11 (antibody, human IgG1, kappa, V domains shown)
# VH: B1 VH with T58G
# VL: B1 VL with T51A
# B9: h23-12-24 (antibody, human IgG1, kappa, V domains shown)
# VH: B1 VH with N56G
# VL: B1 VL with H55E
# B10: h23-12-26 (antibody, human IgG1, kappa, V domains shown)
# VH: B1 VH with N61A
# VL: B1 VL with H55E
# B11: h23-12-35 (antibody, human IgG1, kappa, V domains shown)
# VH: B1 VH with H100Q
# VL: B1 VL with H55Q
# B12: h23-12-28 (antibody, human IgG1, kappa, V domains shown)
# VH: B1 VH with H100Q
# VL: B1 VL with H55E
# B13: h23-12-43 (antibody, human IgG1, kappa, V domains shown)
# VH: B1 VH
# VL: B1 VL with T93S
# B14: h23-12-17 (antibody, human IgG1, kappa, V domains shown)
# VH: B1 VH with N56G
# VL: B1 VL with R53S
# B15: h23-12-29 (antibody, human IgG1, kappa, V domains shown)
# VH: B1 VH
# VL: B1 VL with H55Q
# B16: h23-12-8 (antibody, human IgG1, kappa, V domains shown)
# VH: B1 VH
# VL: B1 VL with T51A
# B17: h23-12-22 (antibody, human IgG1, kappa, V domains shown)
# VH: B1 VH
# VL: B1 VL with H55E
# B18: h23-12-12 (antibody, human IgG1, kappa, V domains shown)
# VH: B1 VH with N61A
# VL: B1 VL with T51A
# B19: h23-12-5 (antibody, human IgG1, kappa, V domains shown)
# VH: B1 VH with N61A
# VL: B1 VL
# B20: h23-12-40 (antibody, human IgG1, kappa, V domains shown)
# VH: B1 VH with N61A
# VL: B1 VL with G91Y
# B21: h23-12-39 (antibody, human IgG1, kappa, V domains shown)
# VH: B1 VH with T58G
# VL: B1 VL with G91Y
# B22: h23-12-36 (antibody, human IgG1, kappa, V domains shown)
# VH: B1 VH
# VL: B1 VL with G91Y
# B23: h23-12-13 (antibody, human IgG1, kappa, V domains shown)
# VH: B1 VH with H100E
# VL: B1 VL with T51A
# B24: h23-12-4 (antibody, human IgG1, kappa, V domains shown)
# VH: B1 VH with T58G
# VL: B1 VL
# B25: h23-12-33 (antibody, human IgG1, kappa, V domains shown)
# VH: B1 VH with N61A
# VL: B1 VL with H55Q
# B26: h23-12-2 (antibody, human IgG1, kappa, V domains shown)
# VH: B1 VH with S54G
# VL: B1 VL
# B27: h23-12-38 (antibody, human IgG1, kappa, V domains shown)
# VH: B1 VH with N56G
# VL: B1 VL with G91Y
# B28: h23-12-20 (antibody, human IgG1, kappa, V domains shown)
# VH: B1 VH with H100E
# VL: B1 VL with R53S
# B29: h23-12-34 (antibody, human IgG1, kappa, V domains shown)
# VH: B1 VH with H100E
# VL: B1 VL with H55Q
# B30: h23-12-31 (antibody, human IgG1, kappa, V domains shown)
# VH: B1 VH with N56G
# VL: B1 VL with H55Q
# B31: h23-12-3 (antibody, human IgG1, kappa, V domains shown)
# VH: B1 VH with N56G
# VL: B1 VL
# B32: h23-12-21 (antibody, human IgG1, kappa, V domains shown)
# VH: B1 VH with H100Q
# VL: B1 VL with R53S
# B33: h23-12-41 (antibody, human IgG1, kappa, V domains shown)
# VH: B1 VH with H100E
# VL: B1 VL with G91Y
# B34: h23-12-27 (antibody, human IgG1, kappa, V domains shown)
# VH: B1 VH with H100E
# VL: B1 VL with H55E
# B35: h23-12-30 (antibody, human IgG1, kappa, V domains shown)
# VH: B1 VH with S54G
# VL: B1 VL with H55Q
# B36: h23-12-15 (antibody, human IgG1, kappa, V domains shown)
# VH: B1 VH
# VL: B1 VL with R53S
# B37: h23-12-18 (antibody, human IgG1, kappa, V domains shown)
# VH: B1 VH with T58G
# VL: B1 VL with R53S
# B38: h23-12-14 (antibody, human IgG1, kappa, V domains shown)
# VH: B1 VH with H100Q
# VL: B1 VL with T51A
# B39: h23-12-16 (antibody, human IgG1, kappa, V domains shown)
# VH: B1 VH with S54G
# VL: B1 VL with R53S
# B40: h23-12-10 (antibody, human IgG1, kappa, V domains shown)
# VH: B1 VH with N56G
# VL: B1 VL with T51A
# B41: h23-12-7 (antibody, human IgG1, kappa, V domains shown)
# VH: B1 VH with H100Q
# VL: B1 VL
# B42: h23-12-44 (antibody, human IgG1, kappa, V domains shown)
# VH: B1 VH with S54G
# VL: B1 VL with T93S
# B43: h23-12-37 (antibody, human IgG1, kappa, V domains shown)
# VH: B1 VH with S54G
# VL: B1 VL with G91Y
# Molecular target: T1, recombinant human Trop-2-his protein …
# Assay: BLI, antibody on AHC sensor, Trop-2-his 60 nM
# Procedure: 5-6 days after cell transfection, culture supernatants were purified through ProA affinity chromatography column to obtain different humanized antibodies. Affinities of the obtained antibodies were determined by an assay including capturing Fc fragments of the antibodies with anti-human IgG Fc capture (AHC) biosensors using Octet QKe system instrument from Fortebio. For the assay, each of the humanized antibodies and control antibody Sacituzumab was diluted to 4 μg/ml in PBS, and was allowed to flow through the surface of an AHC biosensor (Cat.: 18-0015, PALL) for 120 s. Recombinant human Trop-2-his protein (ACCESSION NO.: NP_002344.2, AA 1-274) was used as a mobile phase, and its concentration was 60 nM. The binding time was 100 s and the dissociation time was 300 s. When the assay was finished, data from which the response values of blank control had been deducted were fitted to a 1:1 Langmuir binding model using software, and then kinetic constants for antigen-antibody binding were calculated.
# Affinities of the antibodies obtained from the combinations of mutants of murine antibody 23-12, chimeric antibody ch23-12 and control antibody Sacituzumab to recombinant human Trop-2-his protein were determined by ForteBijo (Table 5).
row,Kd [nM],Binder
1,0.272,B1
2,0.77,B2
3,0.298,B3
4,3.09,B4
5,1.1,B5
6,10,B6
7,0.601,B7
8,0.881,B8
9,5.21,B9
10,5.43,B10
11,9.77,B11
12,4.13,B12
13,0.98,B13
14,28,B14
15,6.72,B15
16,0.9,B16
17,1.3,B17
18,26.2,B18
19,3.2,B19
20,2.16,B20
21,0.492,B21
22,8.81,B22

row,Kd [nM],Binder
1,0.916,B23
2,0.827,B24
3,8.91,B25
4,0.893,B26
5,7.86,B27
6,1.46,B28
7,5.57,B29
8,63.9,B30
9,15,B31
10,22.8,B32
11,0.782,B33
12,0.496,B34
13,9.76,B35
14,1.43,B36
15,0.991,B37
16,23.9,B38
17,2.87,B39
18,9.62,B40
19,6.8,B41
20,0.717,B42
21,0.893,B43
